Biological target: Full-length wild-type (WT) OaPAC, photoactivated adenylate cyclase from Oscillatoria acuminata (Oscillatoria acuminata)
Test: crystal structure; serial femtosecond crystallography (SFX) at the European XFEL, room temperature (294 K), microcrystals grown in 0.06 M divalents (MgCl2/CaCl2), 0.1 M Tris-Bicine pH 8.5, 30% PEG 550 MME/PEG 20 000; space group P2(1)2(1)2, one monomer in the asymmetric unit, dimer by crystal symmetry; 1.75 A

With “Full-length wild-type (WT) OaPAC, photoactivated adenylate cyclase from Oscillatoria acuminata (enzyme)” the stoichiometry N was 2.

Reference: PMC11533990
